Laboratory results from patent publication US10500249B2, “Compositions and methods for preventing or treating diseases, conditions, or processes characterized by aberrant fibroblast proliferation and extracellular matrix deposition” (MOERAE MATRIX, INC., priority 2014, dated 2019).

Columns and labels:
Experiment in all cases: Kinase Profiling Assay
Type in all cases: biochemical
Settings in all cases: 100 μM
Aurora-A (h) = molecular target: T1, Aurora-A (h) (Homo sapiens, UniProt O14965)
T1 sequence (O14965 1-403): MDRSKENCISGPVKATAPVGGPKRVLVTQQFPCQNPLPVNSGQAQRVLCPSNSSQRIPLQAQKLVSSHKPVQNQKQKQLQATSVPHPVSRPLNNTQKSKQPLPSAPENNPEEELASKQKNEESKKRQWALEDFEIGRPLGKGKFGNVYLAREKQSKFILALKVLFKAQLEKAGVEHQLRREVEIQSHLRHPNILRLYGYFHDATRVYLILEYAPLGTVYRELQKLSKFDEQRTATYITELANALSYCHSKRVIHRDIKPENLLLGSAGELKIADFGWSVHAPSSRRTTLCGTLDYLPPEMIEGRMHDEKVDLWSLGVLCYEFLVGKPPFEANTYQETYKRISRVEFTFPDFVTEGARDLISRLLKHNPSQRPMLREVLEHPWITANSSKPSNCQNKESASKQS
Procedure, shortened: (§1)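 Duplicate wells; [radiolabeled] ATP phosphate onto cationic substrate; filter capture (negatively charged membrane); scintillation count; % of 100% activity control. Selectivity screen of MK2 peptide inhibitors, 266 human kinases.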

GCK (h) = molecular target: T2, GCK (h) (Homo sapiens, UniProt Q12851)
T2 construct: purchased Millipore
T2 sequence (Q12851 1-820): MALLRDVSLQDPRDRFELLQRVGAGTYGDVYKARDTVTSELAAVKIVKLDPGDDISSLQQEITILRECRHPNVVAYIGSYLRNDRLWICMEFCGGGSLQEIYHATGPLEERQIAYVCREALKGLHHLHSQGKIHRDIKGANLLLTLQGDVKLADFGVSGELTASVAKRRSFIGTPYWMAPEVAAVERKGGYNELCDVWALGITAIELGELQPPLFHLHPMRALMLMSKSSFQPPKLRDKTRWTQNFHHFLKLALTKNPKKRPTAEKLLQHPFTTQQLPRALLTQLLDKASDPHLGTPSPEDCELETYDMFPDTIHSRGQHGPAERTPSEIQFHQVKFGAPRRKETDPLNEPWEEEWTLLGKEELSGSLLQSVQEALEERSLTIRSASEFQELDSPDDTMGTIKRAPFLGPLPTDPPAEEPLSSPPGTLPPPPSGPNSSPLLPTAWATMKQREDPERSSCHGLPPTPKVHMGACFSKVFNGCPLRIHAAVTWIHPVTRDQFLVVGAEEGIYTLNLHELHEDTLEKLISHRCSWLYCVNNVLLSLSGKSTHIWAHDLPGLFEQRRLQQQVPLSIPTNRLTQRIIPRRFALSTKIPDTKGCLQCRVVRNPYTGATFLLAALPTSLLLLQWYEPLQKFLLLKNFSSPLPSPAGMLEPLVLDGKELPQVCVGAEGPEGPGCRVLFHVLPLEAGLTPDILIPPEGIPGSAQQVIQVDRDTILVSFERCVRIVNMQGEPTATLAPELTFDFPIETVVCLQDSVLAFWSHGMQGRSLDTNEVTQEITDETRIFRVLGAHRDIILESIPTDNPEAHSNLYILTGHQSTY
Procedure, shortened: as §1

JNK1α1 (h) = JNK1α1 (h) (Homo sapiens, UniProt P45983)
Chain of JNK1α1 (h) (P45983 1-384 isoform P45983-2): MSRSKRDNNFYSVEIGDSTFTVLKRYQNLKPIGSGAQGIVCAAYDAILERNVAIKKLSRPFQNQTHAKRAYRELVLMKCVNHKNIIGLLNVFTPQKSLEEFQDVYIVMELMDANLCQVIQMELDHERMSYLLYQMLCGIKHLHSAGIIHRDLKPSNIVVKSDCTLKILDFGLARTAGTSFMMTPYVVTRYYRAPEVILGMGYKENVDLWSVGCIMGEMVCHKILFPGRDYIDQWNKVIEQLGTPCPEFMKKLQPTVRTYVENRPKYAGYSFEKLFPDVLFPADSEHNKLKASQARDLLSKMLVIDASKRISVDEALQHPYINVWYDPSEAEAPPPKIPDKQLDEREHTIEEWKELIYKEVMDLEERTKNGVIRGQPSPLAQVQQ
Procedure, shortened: as §1

MKK7β (h) = molecular target: T3, MKK7β (h) (Homo sapiens, UniProt O14733)
T3 construct: purchased Millipore
T3 sequence (O14733 1-419): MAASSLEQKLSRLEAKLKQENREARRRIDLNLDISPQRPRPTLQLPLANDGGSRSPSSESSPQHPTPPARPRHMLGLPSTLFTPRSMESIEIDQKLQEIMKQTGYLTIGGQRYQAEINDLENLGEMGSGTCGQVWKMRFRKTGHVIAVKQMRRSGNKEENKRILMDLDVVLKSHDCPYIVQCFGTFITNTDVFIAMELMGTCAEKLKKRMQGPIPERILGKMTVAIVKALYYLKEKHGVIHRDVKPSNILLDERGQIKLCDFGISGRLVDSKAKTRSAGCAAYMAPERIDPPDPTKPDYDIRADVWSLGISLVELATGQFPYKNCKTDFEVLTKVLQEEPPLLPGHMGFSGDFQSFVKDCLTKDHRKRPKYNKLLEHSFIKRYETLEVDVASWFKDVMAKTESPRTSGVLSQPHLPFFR
Procedure, shortened: as §1

EGFR(L861Q) (h) = molecular target: T4, EGFR(L861Q) (h) (Homo sapiens, UniProt P00533, L861Q)
T4 construct: purchased Millipore
Procedure, shortened: as §1

Lck (h) = Lck (h) (Homo sapiens, UniProt P06239)
Chain of Lck (h) (P06239 whole entry): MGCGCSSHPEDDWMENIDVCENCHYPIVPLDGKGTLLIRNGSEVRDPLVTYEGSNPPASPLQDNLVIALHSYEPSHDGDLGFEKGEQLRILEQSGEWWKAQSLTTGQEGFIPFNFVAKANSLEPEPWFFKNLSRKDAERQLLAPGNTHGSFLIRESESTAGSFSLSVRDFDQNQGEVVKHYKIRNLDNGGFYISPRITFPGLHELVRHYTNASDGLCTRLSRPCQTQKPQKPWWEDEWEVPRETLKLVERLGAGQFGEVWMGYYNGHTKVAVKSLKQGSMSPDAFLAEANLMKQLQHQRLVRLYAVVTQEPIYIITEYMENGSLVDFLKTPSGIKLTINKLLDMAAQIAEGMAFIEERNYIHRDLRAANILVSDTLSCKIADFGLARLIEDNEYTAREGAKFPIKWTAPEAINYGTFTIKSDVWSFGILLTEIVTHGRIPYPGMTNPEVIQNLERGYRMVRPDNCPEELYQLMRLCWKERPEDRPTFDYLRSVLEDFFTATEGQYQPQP
Procedure, shortened: as §1

HIPK3 (h) = molecular target: T5, HIPK3 (h) (Homo sapiens, UniProt Q9H422)
T5 construct: purchased Millipore
T5 sequence (Q9H422 whole entry): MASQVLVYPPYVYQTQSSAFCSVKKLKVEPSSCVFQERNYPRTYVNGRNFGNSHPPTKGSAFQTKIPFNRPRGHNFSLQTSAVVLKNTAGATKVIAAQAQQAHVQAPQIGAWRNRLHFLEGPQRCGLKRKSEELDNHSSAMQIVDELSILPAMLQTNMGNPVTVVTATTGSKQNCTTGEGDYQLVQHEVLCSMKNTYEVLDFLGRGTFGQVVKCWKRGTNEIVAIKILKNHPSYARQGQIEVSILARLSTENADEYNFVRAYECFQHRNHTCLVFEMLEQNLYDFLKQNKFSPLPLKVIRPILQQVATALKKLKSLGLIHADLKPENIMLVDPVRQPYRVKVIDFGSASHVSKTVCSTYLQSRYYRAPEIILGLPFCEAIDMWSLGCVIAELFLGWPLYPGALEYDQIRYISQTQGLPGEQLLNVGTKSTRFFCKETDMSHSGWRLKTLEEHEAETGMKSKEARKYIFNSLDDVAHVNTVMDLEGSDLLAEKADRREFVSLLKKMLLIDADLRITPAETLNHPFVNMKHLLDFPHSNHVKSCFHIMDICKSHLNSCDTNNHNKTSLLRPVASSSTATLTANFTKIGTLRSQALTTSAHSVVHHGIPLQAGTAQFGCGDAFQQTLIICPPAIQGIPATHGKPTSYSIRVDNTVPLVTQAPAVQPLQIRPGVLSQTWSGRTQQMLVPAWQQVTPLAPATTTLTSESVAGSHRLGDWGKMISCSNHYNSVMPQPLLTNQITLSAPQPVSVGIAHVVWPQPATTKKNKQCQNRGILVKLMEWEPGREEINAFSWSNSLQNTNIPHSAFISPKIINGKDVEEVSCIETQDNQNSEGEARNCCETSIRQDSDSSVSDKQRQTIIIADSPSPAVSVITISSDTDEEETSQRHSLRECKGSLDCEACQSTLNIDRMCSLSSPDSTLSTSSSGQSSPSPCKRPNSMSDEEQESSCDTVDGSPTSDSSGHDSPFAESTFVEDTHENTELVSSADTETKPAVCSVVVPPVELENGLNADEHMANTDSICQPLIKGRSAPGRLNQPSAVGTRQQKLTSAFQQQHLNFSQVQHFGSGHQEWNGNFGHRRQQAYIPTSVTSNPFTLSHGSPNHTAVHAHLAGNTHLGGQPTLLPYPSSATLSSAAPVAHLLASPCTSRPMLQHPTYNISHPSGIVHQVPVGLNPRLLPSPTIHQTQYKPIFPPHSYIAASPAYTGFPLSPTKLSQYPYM
Procedure, shortened: as §1

PKA (h) = molecular target: T6, PKA (h) (Homo sapiens, UniProt P17612)
T6 construct: purchased Millipore
Procedure, shortened: as §1

IGF-1R (h) = molecular target: T7, IGF-1R (h) (Homo sapiens, UniProt P08069)
T7 construct: purchased Millipore
Procedure, shortened: as §1

Sequence	% activity (Aurora-A (h)) [%]	% activity (GCK (h)) [%]	% activity (JNK1α1 (h)) [%]	% activity (MKK7β (h)) [%]	% activity (EGFR(L861Q) (h)) [%]	% activity (Lck (h)) [%]	% activity (HIPK3 (h)) [%]	% activity (PKA (h)) [%]	% activity (IGF-1R (h)) [%]
FAKLAARLYRKALARQLGVAA [MMI-0300]	92	70	97	100	25	−2	93		
HRRIKAWLKKIKALARQLGVAA (Mammalian) [MMI-0500]	110	30			15	359	85	118	
KAFAKLAARLYRKALARQLGVAA [MMI-0400]		66	98	94	22				90
YARAAARQARAKALNRQLGVA (Mammalian) [MMI-0200]		99			74			110	49
